Measurements taken from US20230416345A1, “NEW TYPE II COLLAGEN BINDING PROTEINS” (Navigo Proteins GmbH, priority 2020, published 2023).

T1: human collagen type III (Homo sapiens, UniProt P02461)
T1 construct: purchased Abcam ab7535
T1 sequence (P02461 154-1221 limits assumed): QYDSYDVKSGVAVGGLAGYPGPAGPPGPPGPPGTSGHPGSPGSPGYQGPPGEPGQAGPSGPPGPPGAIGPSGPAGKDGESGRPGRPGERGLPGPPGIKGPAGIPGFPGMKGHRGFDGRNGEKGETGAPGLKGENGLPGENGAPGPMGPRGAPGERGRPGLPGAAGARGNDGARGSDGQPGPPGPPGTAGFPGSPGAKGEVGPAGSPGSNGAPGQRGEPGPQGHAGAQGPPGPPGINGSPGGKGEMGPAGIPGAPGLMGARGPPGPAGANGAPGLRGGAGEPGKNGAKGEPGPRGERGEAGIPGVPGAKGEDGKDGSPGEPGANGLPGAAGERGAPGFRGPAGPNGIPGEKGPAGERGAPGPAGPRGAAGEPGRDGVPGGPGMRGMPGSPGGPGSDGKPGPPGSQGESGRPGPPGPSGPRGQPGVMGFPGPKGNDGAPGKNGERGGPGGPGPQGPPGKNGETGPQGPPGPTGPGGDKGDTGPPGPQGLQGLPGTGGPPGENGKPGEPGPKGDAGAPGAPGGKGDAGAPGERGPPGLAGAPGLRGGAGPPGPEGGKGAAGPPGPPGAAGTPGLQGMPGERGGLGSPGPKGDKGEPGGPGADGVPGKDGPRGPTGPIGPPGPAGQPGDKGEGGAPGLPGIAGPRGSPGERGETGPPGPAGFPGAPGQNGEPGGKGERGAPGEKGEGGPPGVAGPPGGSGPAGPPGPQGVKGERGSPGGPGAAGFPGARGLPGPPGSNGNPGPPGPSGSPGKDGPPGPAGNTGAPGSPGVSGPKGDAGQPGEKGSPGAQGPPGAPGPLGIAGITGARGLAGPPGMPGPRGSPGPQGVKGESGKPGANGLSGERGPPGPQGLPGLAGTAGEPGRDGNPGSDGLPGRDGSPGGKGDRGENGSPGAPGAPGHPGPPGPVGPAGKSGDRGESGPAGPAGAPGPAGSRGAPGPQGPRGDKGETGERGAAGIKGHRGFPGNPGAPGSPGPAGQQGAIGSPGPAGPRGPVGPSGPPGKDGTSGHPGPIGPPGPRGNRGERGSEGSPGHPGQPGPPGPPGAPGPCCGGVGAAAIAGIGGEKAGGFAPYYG


Legend:
[1] = target: T2, hCol2 (human Type II collagen) (Homo sapiens, UniProt P02458); assay: Binding analysis by SPR (Biacore 3000) vs human type II collagen; conditions: for Affinity [SPR] vs hCol2: dimers or tetramers, Langmuir 1:1 model
T2 construct: purchased Chondrex
T2 sequence (P02458 182-1241): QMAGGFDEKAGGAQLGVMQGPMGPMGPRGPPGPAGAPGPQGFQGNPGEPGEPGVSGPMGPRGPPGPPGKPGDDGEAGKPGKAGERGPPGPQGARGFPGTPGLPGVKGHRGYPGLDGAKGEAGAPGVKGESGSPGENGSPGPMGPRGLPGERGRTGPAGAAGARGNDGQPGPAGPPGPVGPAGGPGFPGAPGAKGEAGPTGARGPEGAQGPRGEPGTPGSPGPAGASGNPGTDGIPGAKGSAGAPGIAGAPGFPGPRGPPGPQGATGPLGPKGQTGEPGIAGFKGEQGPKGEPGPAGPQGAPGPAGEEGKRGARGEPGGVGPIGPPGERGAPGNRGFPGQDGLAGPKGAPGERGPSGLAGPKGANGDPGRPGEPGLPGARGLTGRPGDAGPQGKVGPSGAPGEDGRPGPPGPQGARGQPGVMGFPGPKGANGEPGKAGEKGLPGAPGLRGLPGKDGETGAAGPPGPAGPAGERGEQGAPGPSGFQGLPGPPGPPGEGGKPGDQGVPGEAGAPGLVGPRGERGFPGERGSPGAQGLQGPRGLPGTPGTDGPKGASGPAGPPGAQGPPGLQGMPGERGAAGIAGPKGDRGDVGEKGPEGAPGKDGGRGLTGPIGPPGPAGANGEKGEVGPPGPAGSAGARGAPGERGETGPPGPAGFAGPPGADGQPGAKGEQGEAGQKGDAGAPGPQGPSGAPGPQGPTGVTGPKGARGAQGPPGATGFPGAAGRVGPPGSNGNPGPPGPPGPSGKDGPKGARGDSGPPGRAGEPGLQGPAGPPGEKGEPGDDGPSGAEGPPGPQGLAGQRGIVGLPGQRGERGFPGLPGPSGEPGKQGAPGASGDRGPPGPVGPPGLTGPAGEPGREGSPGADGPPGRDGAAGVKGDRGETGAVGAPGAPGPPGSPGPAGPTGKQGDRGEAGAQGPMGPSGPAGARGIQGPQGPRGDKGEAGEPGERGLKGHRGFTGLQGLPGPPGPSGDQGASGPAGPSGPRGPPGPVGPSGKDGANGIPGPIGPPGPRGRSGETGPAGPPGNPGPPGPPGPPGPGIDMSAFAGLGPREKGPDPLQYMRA
Method: (§1) Proteins with affinity tag were purified by affinity chromatography and size exclusion. After affinity chromatography purification using Strep-Tactin Superflow high capacity cartridges (IBA Lifesciences) a size exclusion chromatography (SEC) was performed using an Äkta system and a Superdex™ 200 HiLoad 16/600 column (Cytiva). Fused variants with Aflibercept were purified via MabSelect SuRe (Cytiva) affinity chromatography followed by a size exclusion chromatography (SEC) using an Äkta system and a Superdex™ 200 HiLoad 16/600 column (Cytiva). All chromatography processing steps were carried out on AKTA systems using matrices from Cytiva. Homogenous species of all purified ligands were obtained; no aggregation was detected. Following SOS-PAGE analysis positive fractions were pooled and their protein concentrations were measured. Further analysis included SOS-PAGE, SE-HPLC and RP-HPLC. Protein concentrations were determined by absorbance measurement at 280 nm using the molar absorbent coefficient. Reversed phase chromatography (RP-HPLC) was performed using a Dionex HPLC system and a PLRP-S (5 μm, 300 Å) column (Agilent). Analytic size exclusion chromatography (SE-HPLC) was performed using a Dionex HPLC system and a Superdex200 increase 5/150 GL (Cytiva). Binding of Collagen II was evaluated by SPR measurements using a Biacore 3000 system. Purified Collagen II was obtained from Chondrex.inc and VEGF-165 was obtained from Millipore. Targets were immobilized on a CM5-Sensor via NHS/EDC chemistry (immobilization level ˜1000 RU). Binding molecules were injected at different concentration and affinity was calculated by langmuir 1:1 binding model.
The purified proteins were immobilized on a CM-5 sensor chip (GE Healthcare) using NHS/EDC after PDEA activation resulting in 110-140 RU with a Biacore 3000 system (GE Healthcare). The chip was equilibrated with SPR running buffer (PBS 0.05% Tween pH 7.3). Upon binding, target analyte was accumulated on the surface increasing the refractive index. This change in the refractive index was measured in real time and plotted as response or resonance units versus time. The analytes were applied to the chip in serial dilutions with a flow rate of 30 μl/min. The association was performed for 120 seconds and the dissociation for 120 seconds. After each run, the chip surface was regenerated with 30 μl regeneration buffer (10 mM glycine pH 2.0) and equilibrated with running buffer.
Binding studies were carried out by the use of the BIAcore 3000 (GE Healthcare); data evaluation was operated via the BIAevaluation 3.0 software, provided by the manufacturer, using the Langmuir 1:1 model (RI=0). Evaluated dissociation constants (KD) were standardized against the immobilized protein and indicated. Shown is the change in refractive index measured in real time and plotted as response or resonance unit [RU] versus time [sec].

[2] = Soluble expression in Escherichia coli BL21(DE3); assay type: physicochemical; conditions: expression in E. coli BL21(DE3)
Method: Variants with affinity tag were expressed in Escherichia coli BL21(DE3) using a low copy plasmid system under regulation of a T7 promoter. Proteins were produced in soluble form after induction by lactose included in the medium (autoinduction medium). BL21 (DE3) competent cells were transformed with the expression plasmid, spread onto selective agar plates (kanamycin) and incubated overnight at 37° C. Precultures were inoculated from single colony in 3 ml 2×YT medium supplemented with 50 μg/ml kanamycin and cultured for 6 hours at 37° C. at 200 rpm in a conventional orbital shaker in culture tubes. […] Cultures were transferred to an orbital shaker and incubated at 30° C. and 200 rpm. Recombinant protein expression was induced by metabolizing glucose and subsequently allowing lactose to enter the cells. Cells were grown overnight for approx. 17 hours to reach a final OD600 of about 2-4. Before the harvest, the OD600 was measured, samples adjusted to 0.6/OD600 were withdrawn, pelleted and frozen at −20° C. To collect biomass cells were centrifuged at 12000×g for 15 min at 22° C. Pellets were weighed (wet weight). Cells were stored at −20° C. before processing.
as §1

human collagen type III = target: T1, human collagen type III; assay: ELISA specificity vs human collagen type III; assay type: binding
Method: (§2) High binding plates (Greiner, 781061) were immobilized with 2.5 μg/ml recombinant human collagen type II (h Col II, Chondrex, CHX-20051), rabbit collagen type II (rbCol II, prepared from rabbit eyes), porcine collagen type II (p Col II, prepared from porcine eyes), human collagen type I, (h Col I, Sigma, C5483-1MG), human collagen type V (h Col V, Abcam, ab7537), human collagen type III (h Col Ill, Abcam, ab7535) and 67B89 (domain of fibronectin, produced in E. coli) respectively over night at 4° C. ELISA-plates were washed 3 times with PBST (PBS+ 0.1% Tween) and blocked with 3% BSA/0.5% Tween/PBS 2 h at RT. After washing with PBST, dilution series of 1.1 μM to 7×10^−4 nM of dimers (CID 211999, CID 212000), dilution series of 100 nM to 7×10^−6 nM of tetramers (CID 212001 and CID 212704) and dilution series of 10 μM to 2 nM of dimer (CID 212705) were incubated on ELISA-plates 1 h at rt. Plates were washed with PBST and incubated with biotinylated anti-StrepTag-ab (Antikörper-online, ABIN1573895) with a dilution of 1:10.000 for 1 h at rt. The binding was visualized with a-rabbit-IgG-HRP (Sigma, A9169) with a dilution of 1:10.000 and as substrate TMB Plus von KEM EN TEC Diagnostic, Kat-Nr. 4395.

[3] = target: T3, 67B89 (domain of fibronectin) (Homo sapiens, UniProt P02751); assay: ELISA specificity vs 67B89; assay type: binding
T3 construct: unrelated fibronectin domain EDB (67B89) could be observed; made in house; host or cells: E. coli
T3 sequence (P02751 1089-1540 limits assumed): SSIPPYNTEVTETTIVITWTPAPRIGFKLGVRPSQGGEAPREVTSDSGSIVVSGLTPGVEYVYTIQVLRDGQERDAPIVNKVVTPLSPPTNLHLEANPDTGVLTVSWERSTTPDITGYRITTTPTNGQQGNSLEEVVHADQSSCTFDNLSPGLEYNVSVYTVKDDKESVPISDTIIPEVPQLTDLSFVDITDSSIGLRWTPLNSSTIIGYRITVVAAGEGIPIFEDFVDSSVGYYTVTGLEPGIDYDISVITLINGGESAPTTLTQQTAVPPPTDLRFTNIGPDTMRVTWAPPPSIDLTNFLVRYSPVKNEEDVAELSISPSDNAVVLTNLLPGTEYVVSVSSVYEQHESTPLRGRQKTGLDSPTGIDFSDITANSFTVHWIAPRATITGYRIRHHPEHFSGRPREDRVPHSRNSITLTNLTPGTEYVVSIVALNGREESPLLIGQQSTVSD
Method: as §2

[4] = target: T4, recombinant human collagen type II (h Col II) (Homo sapiens, UniProt P02458); assay: KD-determination by ELISA vs human collagen type II; assay type: binding; conditions: for binding affinity (KD) to type II collagen by ELISA, in words: tetramers: of different species
T4 construct: purchased Chondrex CHX-20051
T4 sequence (P02458 182-1241): as the sequence (P02458 182-1241) above
Method: as §2

[5] = target: T5, human collagen type I (h Col I) (Homo sapiens, UniProt P02452+P08123); assay: ELISA specificity vs human collagen type I; assay type: binding
T5 construct: purchased Sigma C5483-1MG
T5 sequence (P02452 162-1218 limits assumed): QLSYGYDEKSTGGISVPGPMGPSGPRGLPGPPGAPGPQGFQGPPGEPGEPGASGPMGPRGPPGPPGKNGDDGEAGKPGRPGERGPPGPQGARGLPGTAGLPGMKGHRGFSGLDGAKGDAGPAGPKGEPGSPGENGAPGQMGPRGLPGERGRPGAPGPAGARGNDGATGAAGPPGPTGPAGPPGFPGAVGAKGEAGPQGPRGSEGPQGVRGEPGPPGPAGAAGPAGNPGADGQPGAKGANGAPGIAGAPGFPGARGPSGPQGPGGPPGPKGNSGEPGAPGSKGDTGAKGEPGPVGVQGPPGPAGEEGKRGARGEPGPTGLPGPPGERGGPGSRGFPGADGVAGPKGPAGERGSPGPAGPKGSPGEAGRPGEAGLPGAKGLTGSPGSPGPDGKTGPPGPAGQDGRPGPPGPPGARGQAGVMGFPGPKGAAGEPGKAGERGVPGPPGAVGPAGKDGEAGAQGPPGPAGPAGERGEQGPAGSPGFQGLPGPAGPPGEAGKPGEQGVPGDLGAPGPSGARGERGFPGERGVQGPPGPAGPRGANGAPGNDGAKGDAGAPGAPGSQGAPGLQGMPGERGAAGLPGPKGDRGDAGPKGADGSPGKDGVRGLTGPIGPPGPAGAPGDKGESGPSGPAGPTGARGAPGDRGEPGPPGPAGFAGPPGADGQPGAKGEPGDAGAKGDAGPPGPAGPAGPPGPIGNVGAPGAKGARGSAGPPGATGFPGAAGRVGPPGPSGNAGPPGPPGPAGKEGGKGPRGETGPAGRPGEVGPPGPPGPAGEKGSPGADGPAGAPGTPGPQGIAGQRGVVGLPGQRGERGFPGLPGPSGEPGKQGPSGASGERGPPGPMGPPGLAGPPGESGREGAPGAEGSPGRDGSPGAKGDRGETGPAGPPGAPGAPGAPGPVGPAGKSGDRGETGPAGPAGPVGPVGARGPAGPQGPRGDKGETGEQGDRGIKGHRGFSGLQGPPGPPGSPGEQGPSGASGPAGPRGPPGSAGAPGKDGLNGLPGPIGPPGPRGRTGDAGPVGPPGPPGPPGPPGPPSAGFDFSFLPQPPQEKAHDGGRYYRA
T5 sequence (P08123 80-1119 limits assumed): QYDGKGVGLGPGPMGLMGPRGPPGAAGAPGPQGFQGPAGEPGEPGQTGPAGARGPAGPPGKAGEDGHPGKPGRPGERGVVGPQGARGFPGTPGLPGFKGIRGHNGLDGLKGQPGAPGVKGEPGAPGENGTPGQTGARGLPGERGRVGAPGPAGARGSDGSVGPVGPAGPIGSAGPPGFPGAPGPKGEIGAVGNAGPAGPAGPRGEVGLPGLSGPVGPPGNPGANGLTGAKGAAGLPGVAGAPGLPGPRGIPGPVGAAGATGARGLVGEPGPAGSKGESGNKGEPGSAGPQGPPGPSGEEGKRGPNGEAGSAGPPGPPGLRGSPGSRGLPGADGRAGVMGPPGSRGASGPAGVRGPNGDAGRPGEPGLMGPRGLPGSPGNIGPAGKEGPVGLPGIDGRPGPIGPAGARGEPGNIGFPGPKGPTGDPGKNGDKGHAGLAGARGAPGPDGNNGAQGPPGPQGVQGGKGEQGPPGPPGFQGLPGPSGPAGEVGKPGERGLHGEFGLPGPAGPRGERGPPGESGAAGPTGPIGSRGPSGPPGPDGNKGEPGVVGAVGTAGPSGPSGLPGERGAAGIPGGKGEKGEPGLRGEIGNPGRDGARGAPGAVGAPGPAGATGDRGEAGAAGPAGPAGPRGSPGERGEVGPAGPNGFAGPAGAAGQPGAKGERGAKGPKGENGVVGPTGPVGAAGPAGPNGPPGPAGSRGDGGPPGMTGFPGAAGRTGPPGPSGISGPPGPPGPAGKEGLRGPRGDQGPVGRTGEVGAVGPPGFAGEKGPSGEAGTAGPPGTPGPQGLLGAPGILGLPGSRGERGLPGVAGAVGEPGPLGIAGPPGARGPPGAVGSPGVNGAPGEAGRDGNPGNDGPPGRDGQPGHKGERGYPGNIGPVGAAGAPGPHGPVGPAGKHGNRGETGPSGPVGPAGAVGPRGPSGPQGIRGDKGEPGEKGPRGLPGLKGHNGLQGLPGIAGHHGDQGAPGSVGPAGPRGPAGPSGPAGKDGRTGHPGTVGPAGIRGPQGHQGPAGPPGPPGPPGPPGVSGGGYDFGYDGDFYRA
Method: as §2

[6] = target: T6, human collagen type V (h Col V) (Homo sapiens, UniProt P05997+P20908); assay: ELISA specificity vs human collagen type V; assay type: binding
T6 construct: purchased Abcam ab7537
Method: as §2

Row | Affinity [SPR] vs hCol2 [1] | binding to type III collagen (ELISA) (human collagen type III) | binding to domain of fibronectin (67B89) (ELISA) [3] | binding affinity (KD) to type II collagen by ELISA, in words [4] | binding to type I collagen (ELISA) [5] | binding to type V collagen (ELISA) [6] | binding affinity (KD) to human type II collagen (ELISA) [4] | Molecule | Solubility Soluble expression [2] | Binding to type II collagen via SPR ([1]; FIG. 3, FIG. 4A)
1 | 127 nM | No unspecific binding | No unspecific binding | 1-2-digit nM | No unspecific binding | No unspecific binding | – | CID 211999: dimer of SEQ ID NO: 2 (dimer of directly joint monomers) (protein, Col2 binding protein (dimer of 211261) (CID211999)) IAAKFDEAQSAADSEILHLPNLTEQQRHYFRRWLSDDPSVSTHILTQAQHLNDDQAPKIAAKFDEAQSAADSEILHLPNLTEQQRHYFRRWLSDDPSVSTHILTQAQHLNDDQAPKSAWSHPQFEK | 100% | –
2 | 169 nM | – | – | – | – | – | 460 nM | CID 210987: hetero-dimeric binding protein comprising SEQ ID NO: 10 and SEQ ID NO: 6 linked head-to-tail (protein, Col2 binding protein (dimer) 210987) IAAKFDEAQQAAFYEILHLPNLTEQQRNYFIQWLRDDPSVSLEVLGTAQRLNDSQAPKIAAKFDEAQQLAFYQILHLENLTEEQRNAFIQSLRDDPSVSLEVLGEAIKLNLSQAPK | 80% | –
3 | <0.5 nM | No unspecific binding | No unspecific binding | 3 digit-picomolar | No unspecific binding | No unspecific binding | – | CID 212001: tetramer of SEQ ID NO: 2 (protein, Col2 binding protein (tetramer of 211261) (CID212001)) IAAKFDEAQSAADSEILHLPNLTEQQRHYFRRWLSDDPSVSTHILTQAQHLNDDQAPKIAAKFDEAQSAADSEILHLPNLTEQQRHYFRRWLSDDPSVSTHILTQAQHLNDDQAPKIAAKFDEAQSAADSEILHLPNLTEQQRHYFRRWLSDDPSVSTHILTQAQHLNDDQAPKIAAKFDEAQSAADSEILHLPNLTEQQRHYFRRWLSDDPSVSTHILTQAQHLNDDQAPKSAWSHPQFEK | 100% | binding to type II collagen with high affinity

Continued, molecule first:

Row | Molecule | Affinity [SPR] vs hCol2 [1] | binding to type III collagen (ELISA) (human collagen type III) | binding to domain of fibronectin (67B89) (ELISA) [3] | binding affinity (KD) to type II collagen by ELISA, in words [4] | binding to type I collagen (ELISA) [5] | binding to type V collagen (ELISA) [6] | binding affinity (KD) to human type II collagen (ELISA) [4] | Solubility Soluble expression [2] | Binding to type II collagen via SPR ([1]; FIG. 3, FIG. 4A)
4 | CID 210992: heterodimer with SEQ ID NO: 10 as N-terminal monomer (protein, Col2 binding protein (dimer) 210992) IAAKFDEAQQAAFYEILHLPNLTEQQRNYFIQWLRDDPSVSLEVLGTAQRLNDSQAPKIAAKFDEAQQLAFYQILHLENLTEEQRNAFIQSLRDDPSVSTEVLGEAEKLNYSQAPK | – | – | – | – | – | – | – | 95% | –
5 | CID 211027: heterodimer with SEQ ID NO: 10 as N-terminal monomer (protein, Col2 binding protein (dimer) 211027) IAAKFDEAQQAAFYEILHLPNLTEQQRNYFIQWLRDDPSVSLEVLGTAQRLNDSQAPKIAAKFDEAQQLAFYQILHLENLTEEQRNAFIQSLRDDPSVSAEVLGEARKLNKSQAPK | – | – | – | – | – | – | – | 85% | –
